Test [1] deals with T1, recombinant CD3 proteins (UniProt P07766 23-126).
T1 construct: elsewhere it uses human CD3 E/D and E/G heterodimers
Description: Octet BLI, recombinant CD3; Full R^2 0.9778. In general terms: In BLI a coated tip is dipped into the sample, and binding shifts an interference pattern.

For test [2], the target named is T1, recombinant CD3 proteins. Briefly: Octet BLI, recombinant CD3; Full R^2 0.9897.
Test [3] concerns the target T1, recombinant CD3 proteins. Description: Octet BLI, recombinant CD3; Full R^2 0.5677.
Test [4] concerns the target T1, recombinant CD3 proteins. Briefly: Octet BLI, recombinant CD3; Full R^2 0.9599.
Test [5] addresses T1, recombinant CD3 proteins. Briefly: Octet BLI, recombinant CD3; Full R^2 0.9829.

T1 sequence (P07766 23-126): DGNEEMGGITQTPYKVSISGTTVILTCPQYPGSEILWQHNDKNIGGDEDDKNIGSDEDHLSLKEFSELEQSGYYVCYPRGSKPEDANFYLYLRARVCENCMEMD

B1: CD3 × CD33-BspAb83 (bispecific antibody)
chain 1: EVQLVESGGGLVKPGGSLRLSCVASGFTFSRYSMNWVRQAPGKCLEWVSSISSSSRYTYYADSLKGRFIMSRDNAKNSLFLQMNSLRAEDTAVYYCARNLYNALDYWGQGTLVTVSSGGGGSGGGGSGGGGSGGGGSFMLTQPHSVSESPGKTVTISCTRSSGSIASNYVQWYQQRPGSSPTTVIYEDNQRPSGVPDRFSGSIDSSSNSASLTISGLQTEDEADYYCQSYDSSNRVFGCGTKLTVLDKTHTCPPCPAPEFEGGPSVFLFPPKPKDTLMISRTPEVTCVVVDVSHEDPEVKFNWYVDGVEVHNAKTKPREEQYNSTYRVVSVLTVLHQDWLNGKEYKCKVSNKALPASIEKTISKAKGQPREPQVYTLPPCREEMTKNQVSLWCLVKGFYPSDIAVEWESNGQPENNYKTTPPVLDSDGSFFLYSKLTVDKSRWQQGNVFSCSVMHEALHNHYTQKSLSLSPGK
chain 2: EVQLVQSGAEVKKPGSSVKVSCKASGYTITDSNIHWVRQAPGQSLEWIGYIYPYNGGTDYNQKFKNRATLTVDNPTNTAYMELSSLRSEDTAFYYCVNGNPWLAYWGQGTLVTVSSASTKGPSVFPLAPSSKSTSGGTAALGCLVKDYFPEPVTVSWNSGALTSGVHTFPAVLQSSGLYSLSSVVTVPSSSLGTQTYICNVNHKPSNTKVDKRVEPKSCDKTHTCPPCPAPEFEGGPSVFLFPPKPKDTLMISRTPEVTCVVVDVSHEDPEVKFNWYVDGVEVHNAKTKPREEQYNSTYRVVSVLTVLHQDWLNGKEYKCKVSNKALPASIEKTISKAKGQPREPQVCTLPPSREEMTKNQVSLSCAVKGFYPSDIAVEWESNGQPENNYKTTPPVLDSDGSFFLVSKLTVDKSRWQQGNVFSCSVMHEALHNRFTQKSLSLSPGK
chain 3: DIQLTQSPSTLSASVGDRVTITCRASESLDNYGIRFLTWFQQKPGKAPKLLMYAASNQGSGVPSRFSGSGSGTEFTLTISSLQPDDFATYYCQQTKEVPWSFGQGTKVEVKRTVAAPSVFIFPPSDEQLKSGTASVVCLLNNFYPREAKVQWKVDNALQSGNSQESVTEQDSKDSTYSLSSTLTLSKADYEKHKVYACEVTHQGLSSPVTKSFNRGEC
The Kd is the constant that tells how readily two partners part at equilibrium. A word on the koff: it is the rate constant with which the complex falls apart. One may read the kon as the second-order rate constant of association. Regarding B1, in the test with recombinant CD3 proteins [1], the Kd amounted to 3.28 nM, the koff was 0.00134 s⁻¹ and the kon is 408000 M⁻¹ s⁻¹.

B2: CD3 × CD33-BspAb84 (bispecific antibody)
chain 1: EVQVAESGGGLVKPGGSLRLSCAASGFTFSRYSMNWVRQAPGKCLEWVSSISSSGSYTYYADSVKGRFTISRDNAKNSLYLQMNSLRAEDTAVYYCVRERGKGAGMDVWGQGTTVTVSSGGGGSGGGGSGGGGSGGGGSNFMLTQPHSVSESPGKTVTISCTRSSGSIASNYVQWYQQRPGSSPTTVIYEDNQRPSGVPDRFSGSIDSSSNSASLTISGLKTEDEADYYCQSYDSSNRVFGCGTKLTVLDKTHTCPPCPAPEFEGGPSVFLFPPKPKDTLMISRTPEVTCVVVDVSHEDPEVKFNWYVDGVEVHNAKTKPREEQYNSTYRVVSVLTVLHQDWLNGKEYKCKVSNKALPASIEKTISKAKGQPREPQVYTLPPCREEMTKNQVSLWCLVKGFYPSDIAVEWESNGQPENNYKTTPPVLDSDGSFFLYSKLTVDKSRWQQGNVFSCSVMHEALHNHYTQKSLSLSPGK
chain 2: EVQLVQSGAEVKKPGSSVKVSCKASGYTITDSNIHWVRQAPGQSLEWIGYIYPYNGGTDYNQKFKNRATLTVDNPTNTAYMELSSLRSEDTAFYYCVNGNPWLAYWGQGTLVTVSSASTKGPSVFPLAPSSKSTSGGTAALGCLVKDYFPEPVTVSWNSGALTSGVHTFPAVLQSSGLYSLSSVVTVPSSSLGTQTYICNVNHKPSNTKVDKRVEPKSCDKTHTCPPCPAPEFEGGPSVFLFPPKPKDTLMISRTPEVTCVVVDVSHEDPEVKFNWYVDGVEVHNAKTKPREEQYNSTYRVVSVLTVLHQDWLNGKEYKCKVSNKALPASIEKTISKAKGQPREPQVCTLPPSREEMTKNQVSLSCAVKGFYPSDIAVEWESNGQPENNYKTTPPVLDSDGSFFLVSKLTVDKSRWQQGNVFSCSVMHEALHNRFTQKSLSLSPGK
chain 3: DIQLTQSPSTLSASVGDRVTITCRASESLDNYGIRFLTWFQQKPGKAPKLLMYAASNQGSGVPSRFSGSGSGTEFTLTISSLQPDDFATYYCQQTKEVPWSFGQGTKVEVKRTVAAPSVFIFPPSDEQLKSGTASVVCLLNNFYPREAKVQWKVDNALQSGNSQESVTEQDSKDSTYSLSSTLTLSKADYEKHKVYACEVTHQGLSSPVTKSFNRGEC
Consider B2, for which, in the test with recombinant CD3 proteins [2], the dissociation constant Kd was 24.6 nM, the koff is 0.00671 s⁻¹ and the on-rate constant (kon) is 273000 M⁻¹ s⁻¹.

B3: CD3 × CD33-BspAb87 (bispecific antibody)
chain 1: EVQLVESGGGLVKPGGSLRLSCAASGFTVSNYSMNWVRQAPGKCLEWVSSISRSSSYIYYADSVKGRFTISRDNAKNSLFLQMNSLRAEDTAVYYCARERWELLYFDYWGQGTLVTVSSGGGGSGGGGSGGGGSGGGGSQTVVTQEPSFSVSPGGTVTLTCGLSSGSVSTSYYPSWYQQTPGQAPRTLIYSTNTRSSGVPDRFSGSILGNKAALTITGAQADDESDYYCVLYMGSGIWVFGCGTKLTVLDKTHTCPPCPAPEFEGGPSVFLFPPKPKDTLMISRTPEVTCVVVDVSHEDPEVKFNWYVDGVEVHNAKTKPREEQYNSTYRVVSVLTVLHQDWLNGKEYKCKVSNKALPASIEKTISKAKGQPREPQVYTLPPCREEMTKNQVSLWCLVKGFYPSDIAVEWESNGQPENNYKTTPPVLDSDGSFFLYSKLTVDKSRWQQGNVFSCSVMHEALHNHYTQKSLSLSPGK
chain 2: EVQLVQSGAEVKKPGSSVKVSCKASGYTITDSNIHWVRQAPGQSLEWIGYIYPYNGGTDYNQKFKNRATLTVDNPTNTAYMELSSLRSEDTAFYYCVNGNPWLAYWGQGTLVTVSSASTKGPSVFPLAPSSKSTSGGTAALGCLVKDYFPEPVTVSWNSGALTSGVHTFPAVLQSSGLYSLSSVVTVPSSSLGTQTYICNVNHKPSNTKVDKRVEPKSCDKTHTCPPCPAPEFEGGPSVFLFPPKPKDTLMISRTPEVTCVVVDVSHEDPEVKFNWYVDGVEVHNAKTKPREEQYNSTYRVVSVLTVLHQDWLNGKEYKCKVSNKALPASIEKTISKAKGQPREPQVCTLPPSREEMTKNQVSLSCAVKGFYPSDIAVEWESNGQPENNYKTTPPVLDSDGSFFLVSKLTVDKSRWQQGNVFSCSVMHEALHNRFTQKSLSLSPGK
chain 3: DIQLTQSPSTLSASVGDRVTITCRASESLDNYGIRFLTWFQQKPGKAPKLLMYAASNQGSGVPSRFSGSGSGTEFTLTISSLQPDDFATYYCQQTKEVPWSFGQGTKVEVKRTVAAPSVFIFPPSDEQLKSGTASVVCLLNNFYPREAKVQWKVDNALQSGNSQESVTEQDSKDSTYSLSSTLTLSKADYEKHKVYACEVTHQGLSSPVTKSFNRGEC
On to B3, for which, in the test with recombinant CD3 proteins [3], the Kd worked out at 5.17 nM, the dissociation rate constant (koff) turned out to be 0.00307 s⁻¹ and the association rate constant (kon) amounted to 594000 M⁻¹ s⁻¹.

B4: CD3 × CD33-BspAb86 (bispecific antibody)
chain 1: EVQLVESGGGLVKPGGSLRLSCAASGFTFSSYSMNWVRQAPGKCLEWVSSISRSGTYIYYADSVKGRFTISRDNAKNSLYLQMNSLRAEDTAVYYCARERWELLYFDYWGQGTLVTVSSGGGGSGGGGSGGGGSGGGGSQTVVTQEPSLTVSPGGTVTLTCASSTGAVTSGYYPNWFQQKPGQAPRALIYSTSNKHSWTPARFSGSLLGGKAALTLSGVQPEDEAEYYCLLYYGGAYVFGCGTKVTVLDKTHTCPPCPAPEFEGGPSVFLFPPKPKDTLMISRTPEVTCVVVDVSHEDPEVKFNWYVDGVEVHNAKTKPREEQYNSTYRVVSVLTVLHQDWLNGKEYKCKVSNKALPASIEKTISKAKGQPREPQVYTLPPCREEMTKNQVSLWCLVKGFYPSDIAVEWESNGQPENNYKTTPPVLDSDGSFFLYSKLTVDKSRWQQGNVFSCSVMHEALHNHYTQKSLSLSPGK
chain 2: EVQLVQSGAEVKKPGSSVKVSCKASGYTITDSNIHWVRQAPGQSLEWIGYIYPYNGGTDYNQKFKNRATLTVDNPTNTAYMELSSLRSEDTAFYYCVNGNPWLAYWGQGTLVTVSSASTKGPSVFPLAPSSKSTSGGTAALGCLVKDYFPEPVTVSWNSGALTSGVHTFPAVLQSSGLYSLSSVVTVPSSSLGTQTYICNVNHKPSNTKVDKRVEPKSCDKTHTCPPCPAPEFEGGPSVFLFPPKPKDTLMISRTPEVTCVVVDVSHEDPEVKFNWYVDGVEVHNAKTKPREEQYNSTYRVVSVLTVLHQDWLNGKEYKCKVSNKALPASIEKTISKAKGQPREPQVCTLPPSREEMTKNQVSLSCAVKGFYPSDIAVEWESNGQPENNYKTTPPVLDSDGSFFLVSKLTVDKSRWQQGNVFSCSVMHEALHNRFTQKSLSLSPGK
chain 3: DIQLTQSPSTLSASVGDRVTITCRASESLDNYGIRFLTWFQQKPGKAPKLLMYAASNQGSGVPSRFSGSGSGTEFTLTISSLQPDDFATYYCQQTKEVPWSFGQGTKVEVKRTVAAPSVFIFPPSDEQLKSGTASVVCLLNNFYPREAKVQWKVDNALQSGNSQESVTEQDSKDSTYSLSSTLTLSKADYEKHKVYACEVTHQGLSSPVTKSFNRGEC
In the case of B4, in the test with recombinant CD3 proteins [4], the Kd is 54.2 nM, the koff was found to be 0.0149 s⁻¹ and the association rate constant (kon) amounted to 276000 M⁻¹ s⁻¹.

B5: CD3 × CD33-BspAb85 (bispecific antibody)
chain 1: EVQLVESGGGLVKPGGSLRLSCAASGFTFSSYSMNWVRQAPGKCLEWVSSISRSSGYIFYADSVKGRFTISRDNAKNSLYLQMNSLRAEDTAVYYCVRERVGAGFDYWGQGTLVTVSSGGGGSGGGGSGGGGSGGGGSNFMLTQPHSVSESPGKTVAISCTRSSGSIASNYVQWYQQRPGSSPTAVIYEDNQRPSGVPDRFSGSIDSSSNSAFLTISGLKTEDEADYYCQSYDSSNRVFGCGTKLTVLDKTHTCPPCPAPEFEGGPSVFLFPPKPKDTLMISRTPEVTCVVVDVSHEDPEVKFNWYVDGVEVHNAKTKPREEQYNSTYRVVSVLTVLHQDWLNGKEYKCKVSNKALPASIEKTISKAKGQPREPQVYTLPPCREEMTKNQVSLWCLVKGFYPSDIAVEWESNGQPENNYKTTPPVLDSDGSFFLYSKLTVDKSRWQQGNVFSCSVMHEALHNHYTQKSLSLSPGK
chain 2: EVQLVQSGAEVKKPGSSVKVSCKASGYTITDSNIHWVRQAPGQSLEWIGYIYPYNGGTDYNQKFKNRATLTVDNPTNTAYMELSSLRSEDTAFYYCVNGNPWLAYWGQGTLVTVSSASTKGPSVFPLAPSSKSTSGGTAALGCLVKDYFPEPVTVSWNSGALTSGVHTFPAVLQSSGLYSLSSVVTVPSSSLGTQTYICNVNHKPSNTKVDKRVEPKSCDKTHTCPPCPAPEFEGGPSVFLFPPKPKDTLMISRTPEVTCVVVDVSHEDPEVKFNWYVDGVEVHNAKTKPREEQYNSTYRVVSVLTVLHQDWLNGKEYKCKVSNKALPASIEKTISKAKGQPREPQVCTLPPSREEMTKNQVSLSCAVKGFYPSDIAVEWESNGQPENNYKTTPPVLDSDGSFFLVSKLTVDKSRWQQGNVFSCSVMHEALHNRFTQKSLSLSPGK
chain 3: DIQLTQSPSTLSASVGDRVTITCRASESLDNYGIRFLTWFQQKPGKAPKLLMYAASNQGSGVPSRFSGSGSGTEFTLTISSLQPDDFATYYCQQTKEVPWSFGQGTKVEVKRTVAAPSVFIFPPSDEQLKSGTASVVCLLNNFYPREAKVQWKVDNALQSGNSQESVTEQDSKDSTYSLSSTLTLSKADYEKHKVYACEVTHQGLSSPVTKSFNRGEC
For the molecule B5, in the test with recombinant CD3 proteins [5], the Kd is 60.8 nM, the koff was found to be 0.0149 s⁻¹ and the kon was found to be 246000 M⁻¹ s⁻¹.

For the origin of these results see patent US20260167721A1 (ABLEXIS, published 2026).
